Holding throughout (conditions): both partners purified
The target in experiment [1] is T1, His-tagged PEX5 (1–113) (UniProt P50542 1-113).
T1 construct: cytosolic peroxisomal targeting protein PEX5, stretch of the intrinsically disordered N-terminal domain, residues 1-113; His-tagged samples were made with the pETM10 vector; also called hPEX5 (1–113); source: E. coli BL21 (DE3), purified (Ni-NTA, SEC); not shown: His6, N-terminal, kept
Kind of experiment: solution-phase LSPR peak shift of nanoparticles (UV–vis); kinetic: peak position scanned every 20–30 s for 25 min after manual addition of PEX14 to immobilised hPEX5 (PEX14:PEX5 10:1 for 1–113), exponential fit; ka and kd derived from kobs and KD; 20 mM sodium phosphate, 100 mM NaCl, 0.025 wt % Tween 20, pH 7.9.

The target in experiment [2] is T2, His-tagged PEX5 (110–230) (UniProt P50542 110-230).
T2 construct: cytosolic peroxisomal targeting protein PEX5, stretch of the intrinsically disordered N-terminal domain, residues 110-230; His-tagged samples were made with the pETM10 vector; also called hPEX5 (110–230); source: E. coli BL21 (DE3), purified (Ni-NTA, SEC); not shown: His6, N-terminal, kept
The experiment is described as above.

For experiment [3], the target named is T1, His-tagged PEX5 (1–113). Briefly: solution-phase LSPR peak shift of nanoparticles (UV–vis); binding curve near equilibrium: PEX14 (16–80) titrated onto hPEX5 construct (0.015 μM) immobilised on nanobiosensors (~0.025 nM); 20 mM sodium phosphate, 100 mM NaCl, 0.025 wt % Tween 20, pH 7.9; fit with the Hill–Waud equation.

As usually defined, the koff is the first-order rate constant of dissociation. By kon is commonly meant the second-order rate constant of association. In general, Kd refers to the constant that tells how readily two partners part at equilibrium.

B1: PEX14 (16–80) (domain or fragment, UniProt O75381 16-80, looked up)
chain: TPGSENVLPREPLIATAVKFLQNSRVRQSPLATRRAFLKKKGLTDEEIDMAFQQSGTAADEPSSL
notes: peroxisomal membrane-associated import protein PEX14, globular N-terminal domain, residues 16-80; also called globular N-terminal domain of PEX14; source: E. coli BL21 (DE3), purified (Ni-NTA, TEV cleavage, reverse Ni column, SEC); not shown: His6, N-terminal, cleaved
As to B1, in the experiment with His-tagged PEX5 (1–113) [1], the koff worked out at 0.00262 s⁻¹ and the kon is 9060 M⁻¹ s⁻¹. For the same molecule, in experiment [2], the “ka near the first inflection point” value is 12400 M^–1 s^–1 and the “kd near the first inflection point” value was 0.00212 s^–1. In addition, the Kd with His-tagged PEX5 (1–113) [3] came out at 0.289 µM.
